Assay results taken from publication PMC9798557 (2022).

How the values were obtained:
[1] = biological target: T1, CD38 on CD38-positive cell lines (human, UniProt P28907 1-300); experiment: FACS; SU-DHL-6 cells
[2] = biological target: T1, CD38 on CD38-positive cell lines; experiment: FACS; Daudi cells
[3] = biological target: T1, CD38 on CD38-positive cell lines; experiment: FACS; MM1S cells
[4] = biological target: T1, CD38 on CD38-positive cell lines; experiment: FACS; H929 cells
[5] = biological target: T1, CD38 on CD38-positive cell lines; experiment: FACS; MOLP-8 cells
[6] = biological target: T1, CD38 on CD38-positive cell lines; experiment: FACS; Ramos cells
[7] = biological target: T1, CD38 on CD38-positive cell lines; experiment: FACS; RPMI 8226 cells
[8] = biological target: T1, CD38 on CD38-positive cell lines; experiment: FACS; Raji cells

B1: daratumumab (antibody, V domains shown)
VH: EVQLLESGGGLVQPGGSLRLSCAVSGFTFNSFAMSWVRQAPGKGLEWVSAISGSGGGTYYADSVKGRFTISRDNSKNTLYLQMNSLRAEDTAVYFCAKDKILWFGEPVFDYWGQGTLVTVSS
VL: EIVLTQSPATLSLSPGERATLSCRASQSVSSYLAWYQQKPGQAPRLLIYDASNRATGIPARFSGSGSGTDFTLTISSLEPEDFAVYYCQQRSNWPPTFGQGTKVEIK
[1]
  EC50: 0.548 µg/mL
[2]
  EC50: 0.289 µg/mL
[3]
  EC50: 0.581 µg/mL
[4]
  EC50: 0.767 µg/mL
[5]
  EC50: 0.28 µg/mL
[6]
  EC50: 0.74 µg/mL
[7]
  EC50: 1.19 µg/mL
[8]
  EC50: 0.321 µg/mL
